# Source: publication PMC6504684 (Frontiers in Pharmacology, 2019)
# Assays:
# [1] = biological target: glycosylated human nAChR α9-ECD (human) (UniProt Q9UGM1); test: radioligand binding
# [2] = biological target: deglycosylated human nAChR α9-ECD (human) (UniProt Q9UGM1); test: radioligand binding
substance,measurement,setting,value
"α-conotoxin RgIA, globular isomer, C-terminally amidated (from UniProt P0C1D0 20-32) (peptide)",Ki,[1],13.3 µM
same,Ki,[2],2.7 µM
